{"source": "paper PMC11415531", "about": "(Synthetic and Systems Biotechnology, 2024)", "proteins": {"B1": {"name": "S-adenosyl-L-methionine-dependent methyltransferase RdmB from Streptomyces purpurascens (enzyme)", "chain": "MSSSSPGEPLEPTDQDLDVLLKNLGNLVTPMALRVAATLRLVDHLLAGADTLAGLADRTDTHPQALSRLVRHLTVVGVLEGGEKQGRPLRPTRLGMLLADGHPAQQRAWLDLNGAVSHADLAFTGLLDVVRTGRPAYAGRYGRPFWEDLSADVALADSFDALMSCDEDLAYEAPADAYDWSAVRHVLDVGGGNGGMLAAIALRAPHLRGTLVELAGPAERARRRFADAGLADRVTVAEGDFFKPLPVTADVVLLSFVLLNWSDEDALTILRGCVRALEPGGRLLVLDRADVEGDGADRFFSTLLDLRMLTFMGGRVRTRDEVVDLAGSAGLALASERTSGSTTLPFDFSILEFTAVSEEAAPAAQASEALPAQE"}}, "target": "the molecule itself", "assay": "crystal structure", "data": [{"protein": "B1", "values": [{"measurement": "binding result", "result": "binds"}]}]}
